T1: recombinant human FHp43, P08603
T1 chain: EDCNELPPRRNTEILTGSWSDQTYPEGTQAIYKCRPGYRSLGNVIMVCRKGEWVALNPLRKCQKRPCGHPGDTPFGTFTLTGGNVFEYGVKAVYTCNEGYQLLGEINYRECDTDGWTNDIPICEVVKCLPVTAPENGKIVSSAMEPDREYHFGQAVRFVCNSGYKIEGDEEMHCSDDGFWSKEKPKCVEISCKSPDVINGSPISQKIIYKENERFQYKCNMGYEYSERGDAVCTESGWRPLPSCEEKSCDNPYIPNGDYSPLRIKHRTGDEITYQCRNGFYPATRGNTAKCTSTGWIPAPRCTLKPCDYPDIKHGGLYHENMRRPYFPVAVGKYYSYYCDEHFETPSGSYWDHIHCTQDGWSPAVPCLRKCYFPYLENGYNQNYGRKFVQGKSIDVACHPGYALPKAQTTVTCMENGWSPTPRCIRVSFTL

T2: truncated recombinant rat factor H protein SCR1-7
T2 chain: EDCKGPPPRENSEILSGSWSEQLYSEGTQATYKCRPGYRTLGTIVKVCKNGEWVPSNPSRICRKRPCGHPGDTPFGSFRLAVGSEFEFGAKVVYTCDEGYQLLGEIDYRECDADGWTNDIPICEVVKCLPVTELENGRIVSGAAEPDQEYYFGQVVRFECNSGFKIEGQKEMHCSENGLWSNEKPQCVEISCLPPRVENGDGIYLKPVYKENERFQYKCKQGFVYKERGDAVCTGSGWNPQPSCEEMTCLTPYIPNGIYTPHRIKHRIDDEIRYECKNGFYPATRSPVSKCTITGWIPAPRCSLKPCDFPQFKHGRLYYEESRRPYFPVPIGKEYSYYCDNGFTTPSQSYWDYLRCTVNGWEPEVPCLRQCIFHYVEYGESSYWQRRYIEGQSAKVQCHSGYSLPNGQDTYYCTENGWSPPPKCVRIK

B1: human Factor I (protein)
chain: KVTYTSQEDLVEKKCLAKKYTHLSCDKVFCQPWQRCIEGTCVCKLPYQCPKNGTAVCATNRRSFPTYCQQKSLECLHPGTKFLNNGTCTAEGKFSVSLKHGNTDSEGIVEVKLVDQDKTMFICKSSWSMREANVACLDLGFQQGADTQRRFKLSDLSINSTECLHVHCRGLETSLAECTFTKRRTMGYQDFADVVCYTQKADSPMDDFFQCVNGKYISQMKACDGINDCGDQSDELCCKACQGKGFHCKSGVCIPSQYQCNGEVDCITGEDEVGCAGFASVTQEETEILTADMDAERRRIKSLLPKLSCGVKNRMHIRRKRIVGGKRAQLGDLPWQVAIKDASGITCGGIYIGGCWILTAAHCLRASKTHRYQIWTTVVDWIHPDLKRIVIEYVDRIIFHENYNAGTYQNDIALIEMKKDGNKKDCELPRSIPACVPWSPYLFQPNDTCIVSGWGREKDNERVFSLQWGEVKLISNCSKFYGNRFYEKEMECAGTYDGSIDACKGDSGGPLVCMDANNVTYVWGVVSWGENCGKPEFPGVYTKVANYFDWISYHVGRPFISQYNV
B2: rat Factor I (protein)
chain: KNTPASGQPQEDLVEQKCLLKNYTHHSCDKVFCQPWQKCIEGTCACKLPYQCPKAGTPVCATNGRGYPTYCHLKSFECLHPEIKFSNNGTCTAEEKFNVSLIYGSTDTEGIVQVKLVDQDEKMFICKNSWSTVEANVACFDLGFPLGVRDIQGRFNIPVNHKINSTECLHVRCQGVETSLAECTFTKKSSKAPHGLAGVVCYTQDADFPTSQSFQCVNGKRIPQEKACDGVNDCGDQSDELCCKGCRGQAFLCKSGVCIPNQRKCNGEVDCITGEDESGCEEDKKNKIHKGLARSDQGGETEIETEETEMLTPDMDTERKRIKSLLPKLSCGVKRNTHIRRKRVVGGKPAEMGDYPWQVAIKDGDRITCGGIYIGGCWILTAAHCVRPSRYRNYQVWTSLLDWLKPNSQLAVQGVSRVVVHEKYNGATYQNDIALVEMKKHPGKKECELINSVPACVPWSPYLFQPNDRCIISGWGREKDNQKVYSLRWGEVDLIGNCSRFYPGRYYEKEMQCAGTSDGSIDACKGDSGGPLVCKDVNNVTYVWGIVSWGENCGKPEFPGVYTRVASYFDWISYYVGRPLVSQYNV

Tests used:
[1] = molecular target: T1, recombinant human FHp43, P08603
[2] = molecular target: T2, truncated recombinant rat factor H …

Protein | cofactor activity (43 kDa a' cleavage band of the C3b alpha-chain, SDS-PAGE/autoradiography); concentration of FHp43 in the assay [1] | cofactor activity (43 kDa a' cleavage band of the C3b alpha-chain, SDS-PAGE/autoradiography); concentration of rat FHSCR1-7 in the assay [2]
B1 | exhibit cofactor activity even at low concentrations (10 mM) when incubated with C3b and factor I of the corresponding species | 
B2 |  | exhibit cofactor activity even at low concentrations (10 mM) when incubated with C3b and factor I of the corresponding species
